The supplement of paper PMC7125110
± gives the standard error. This sample holds only a part of the variants without activity.

B1: glmS ribozyme (parent)
chain: AUAAAAGCGCCAGAACUACAGAAAUGUAGUUGACGAGGAGGAGGUUUAUCGAAUUUUCGGCGGAUGCCUCCAAA

Variants of: B1
Test: self-cleavage kobs at 2500 uM GlcN6P; higher = faster cleavage; RNA array
Conditions: with glucosamine-6-phosphate
Summary of the method: (§1)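 Barcoded glmS ribozyme variants on sequenced MiSeq chips were transcribed in situ by E. coli RNA polymerase and tracked through a hybridised Cy3 probe at 37 °C. Glucosamine-6-phosphate (40 μM to 10 mM) in HEPES/KCl/Mg(OAc)2 buffer was flowed in, and tiles were imaged over ~14 h. Signals were normalised to baseline and to non-cleaving reference variants; per-tile medians were fit to one- or two-exponential decays to give kobs. kcat and KM came from weighted Michaelis–Menten fits across concentrations.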

Row | Variant | self-cleavage kobs at 2500 uM GlcN6P [s⁻¹]
1 | A36G C58U G59U A64G | < 1e-05
2 | A36C G51C C71G | < 1e-05
3 | C34A C50U C67A | < 1e-05
4 | A48U A53U U69C | 0.000134 ± 3.4e-05
5 | A39G A64G U69A | 0.00038 ± 0.00012
6 | C50A U65G U69G C70A | 8e-05 ± 2.9e-05
7 | G38A G41U G43C A53U G59A A64C | < 1e-05
8 | G38C U49C U57A U65G C70G | < 1e-05
9 | G41A U55A U57C A64U | < 1e-05
10 | G44U G60U C71A | < 1e-05
11 | G44U A52G C67U U69G | < 1e-05
12 | C61G C68G | 0.000131 ± 5.8e-05
13 | G51U A53G U69G | 4.29e-05 ± 2e-05
14 | C34A G44U C58G | < 1e-05
15 | A39C G59A G63U | < 1e-05
16 | U46A A64G G66A C71G | 6.58e-05 ± 2.6e-05
17 | A36U U57G A64G C67U | < 1e-05
18 | G40U U54G C68U | 0.000121 ± 4.4e-05
19 | A36C A52G C61G | < 1e-05
20 | A36G A48U A64C | < 1e-05
21 | U46G C61A | < 1e-05
22 | C34A G51C U54G | < 1e-05
23 | A64C G66A | 4.39e-05 ± 1.4e-05
24 | G38A C50G G59U C61A C67G | 8.22e-05 ± 2.2e-05

Row | Variant | self-cleavage kobs at 2500 uM GlcN6P [s⁻¹]
25 | U57C G66A | 4.71e-05 ± 1.3e-05
26 | G43A G66U C67U C71U | < 1e-05
27 | G40A U54G U69A | < 1e-05
28 | G41A U47G C70G | 9.9e-05 ± 3.6e-05
29 | A42C U46A U56A | < 1e-05
30 | A53U C67A C70A | 5.59e-05 ± 2.7e-05
31 | U46G G66A C70A | 0.00045 ± 0.00016
32 | A42C A48G C50G C61A C70U | < 1e-05
33 | G38A U55C U56C | < 1e-05
34 | G38A G40A G44U G60C | < 1e-05
35 | A52G U57A C58G C71U | 7.76e-05 ± 2.9e-05
36 | A39U U49A U56G | < 1e-05
37 | C34A U55G A64G | < 1e-05
38 | C50U U55A C68G | 0.00018 ± 5.2e-05
39 | A42U A52U U55C C70G | < 1e-05
40 | C34A A39U G41A U54A | < 1e-05
41 | A42G G51U C67U | < 1e-05
42 | G40A A48U C58A G60A | < 1e-05
43 | G37A G38A A39C | < 1e-05
44 | A36G G60U G63A C68A | < 1e-05
45 | A42U U47G U69A | 0.0115 ± 0.0021
46 | G35U A36G G63C | < 1e-05
47 | U45A U54G C68G | 9.7e-05 ± 3.2e-05
48 | A39G U55G C71U | 0.00336 ± 0.0015

Row | Variant | self-cleavage kobs at 2500 uM GlcN6P [s⁻¹]
49 | U45C A52U C68U | < 1e-05
50 | U57C U69C | 6.42e-05 ± 2.1e-05
51 | G44A G51U U57A | < 1e-05
52 | G41U U45C A64U | < 1e-05
53 | U45C U55A U65C | 4.27e-05 ± 1.2e-05
54 | G44A A48G U55A | < 1e-05
55 | A48C G51A C70G | < 1e-05
56 | A39U G41U U46A | 4.67e-05 ± 1.4e-05
57 | A39G G41U A42G | 0.000339 ± 9.9e-05
58 | G37A A42U A52G C71A | < 1e-05
59 | A53U C58G C61G C71G | 0.000415 ± 0.00016
60 | A52C G59C A64U | < 1e-05
61 | G59U A64C G66C | < 1e-05
62 | G37C A52G U56G | < 1e-05
63 | C34G G59A | < 1e-05
64 | A42U U54C C70A | 7.14e-05 ± 2.1e-05
65 | C34U A48U G59C C68A U69C | < 1e-05
66 | A52C C58U G59U | < 1e-05
67 | G35U A48U U56G | < 1e-05
68 | A42U G66A | 7.23e-05 ± 2.1e-05
69 | G41U A42U A52G U56A | 3.73e-05 ± 1.2e-05
70 | G35C G60U C67A | < 1e-05
71 | G37A A52U U57A | 8.64e-05 ± 3.1e-05
72 | G40C U45G C58U | < 1e-05

Row | Variant | self-cleavage kobs at 2500 uM GlcN6P [s⁻¹]
73 | G40C A52G G60A | < 1e-05
74 | G41A U45A C71U | 9.76e-05 ± 2.1e-05
75 | C34A G38U G40A G44C U55C C70G | < 1e-05
76 | A48G U54G C70U | 0.000276 ± 7.7e-05
77 | U45G U46A G66U | 0.000166 ± 3.9e-05
78 | G41C A48U A52C A53U | < 1e-05
79 | C34A G35U U55G | < 1e-05
80 | U57G C58A C70U C71G | 9.31e-05 ± 2.5e-05
81 | U57C G60A G66C | < 1e-05
82 | A42U C61G U69G C70A | < 1e-05
83 | C34U C50A C58G G62C | < 1e-05
84 | A52U U57A C71U | 0.000749 ± 0.00022
85 | G40A G43C G60C C67U | < 1e-05
86 | C34G G51U U56C C67U | < 1e-05
87 | G41U U55C C61G | < 1e-05
88 | C50A A53U C67U C68G | 4.54e-05 ± 2.1e-05
89 | G37U G40A G63A | < 1e-05
90 | A53G C61G G62A | < 1e-05
91 | G35A G41A U54G | < 1e-05
92 | C50A U56G C70A | 8.66e-05 ± 2.8e-05
93 | U45G U56G A64G | 0.00171 ± 0.00054
94 | C50A U69C | 6.67e-05 ± 2e-05
95 | A39C G40A | 0.000126 ± 3.1e-05
96 | G40U C58G G60U C68U | < 1e-05

Row | Variant | self-cleavage kobs at 2500 uM GlcN6P [s⁻¹]
97 | G43C G51C G59U | < 1e-05
98 | G41U U47G U49A G66C C71U | < 1e-05
99 | G40A U46G U47G | 0.000358 ± 0.00012
100 | A36C G44U C67U | < 1e-05
101 | A36U U54G U57A | < 1e-05
102 | A39U A52C C71A | < 1e-05
103 | G38C G59C C71G | < 1e-05
104 | G37U G60U | < 1e-05
105 | U55A C61A C68A | 0.00152 ± 0.00071
106 | G35C C50G U54G | 8.42e-05 ± 1.5e-05
107 | G40U G66U C67U | < 1e-05
108 | C34U G41A A52U | < 1e-05
109 | A39G G41U C68G | < 1e-05
110 | U56A G59A | 5.17e-05 ± 1.7e-05
111 | U47C C61G | < 1e-05
112 | U45C U46C C70A | 0.000116 ± 4.4e-05
113 | U47G U57C C68A | 8.58e-05 ± 3.6e-05
114 | G35C G40U G51A U65G | < 1e-05
115 | G41C U49A U65A | < 1e-05
116 | A42U U45A U49G | < 1e-05
117 | A36G G44U A48G C67U C71A | < 1e-05
118 | A42U U45C U55A | 6.42e-05 ± 1.1e-05
119 | G44C G62A C68G | < 1e-05
120 | G44U A52C U56C G63A C67U | < 1e-05

Row | Variant | self-cleavage kobs at 2500 uM GlcN6P [s⁻¹]
121 | G41C G51C U56A G62A | < 1e-05
122 | C34A A48C U54A | < 1e-05
123 | A39G A42U U55G U57C G62A | < 1e-05
124 | G35U A42U A64U | < 1e-05
125 | U55G C58U C70U | 4.84e-05 ± 1.7e-05
126 | U47A U56G C68A | 7.37e-05 ± 3.6e-05
127 | A48C U49C G59C | < 1e-05
128 | C58A G59C C71U | < 1e-05
129 | G51C G59A C71U | < 1e-05
130 | G43U U45C C71G | < 1e-05
131 | A48U C50U U56C G63A A64C U65A | < 1e-05
132 | A36U G40U G41C | < 1e-05
133 | G41A A48U U57C G60A C61U C67U C71G | < 1e-05
134 | C50U A52C C58U | < 1e-05
135 | U54G U57A C67G | 7.42e-05 ± 2.5e-05
136 | A39U U47C U56A | 0.00121 ± 0.00039
137 | U47G U56C C71A | 5.07e-05 ± 2.5e-05
138 | G37A G44A U56C C71A | < 1e-05
139 | G43U C68A C70U C71A | 9.92e-05 ± 2.8e-05
140 | U57A A64U C67U U69G | 8.87e-05 ± 2.4e-05
141 | U46C G60C C61U | < 1e-05

Variants of: B1
Test: self-cleavage kobs at 10000 uM GlcN6P; higher = faster cleavage; RNA array
Conditions: with glucosamine-6-phosphate
Summary of the method: as §1

Row | Variant | self-cleavage kobs at 10000 uM GlcN6P [s⁻¹]
142 | A36C G51C C71G | < 1e-05
143 | A6C G9A C34A G40C G43A C50U U54A C58G C68U | < 1e-05
144 | A36U U57G A64G C67U | < 1e-05
145 | A6G C50G C68G | 2.86e-05 ± 1.1e-05
146 | A6G A12C A33G U45A G62U | < 1e-05
147 | U46G C61A | < 1e-05
148 | U57C G66A | 0.000102 ± 1.5e-05
149 | A6C U31G G40C | < 1e-05
150 | A6U A39U U54A G60U | < 1e-05
151 | A39U U49A U56G | < 1e-05
152 | A6G G59C G62A | < 1e-05
153 | G44A G51U U57A | < 1e-05
154 | G44A A48G U55A | < 1e-05
155 | A39U G41U U46A | 0.000135 ± 2.6e-05
156 | A6U C11G G41C G62A G66U | < 1e-05
157 | C34G G59A | < 1e-05
158 | A6C G7C G32A A52U | < 1e-05
159 | A42U G66A | 0.000114 ± 2.5e-05

Row | Variant | self-cleavage kobs at 10000 uM GlcN6P [s⁻¹]
160 | G37A A52U U57A | 0.000104 ± 1.9e-05
161 | A6G U54A U56A | 0.000141 ± 2.8e-05
162 | A6U G35A U46G G51U C61A | < 1e-05
163 | A52U U57A C71U | 0.00177 ± 0.00039
164 | A6G G35C U46C | < 1e-05
165 | G40A G43C G60C C67U | < 1e-05
166 | G37U G40A G63A | < 1e-05
167 | A6C G43A G59C C70U | < 1e-05
168 | G35C C50G U54G | 0.000106 ± 1.6e-05
169 | A6C A36U U69A | < 1e-05
170 | U56A G59A | 4.86e-05 ± 9.7e-06
171 | U47C C61G | < 1e-05
172 | G41C U49A U65A | < 1e-05
173 | A6U G9A G29C C50U U69G | 9.44e-05 ± 3.8e-05
174 | A1C U2A A3U G7A C8G G9C C10G C16G | < 1e-05
175 | U54G U57A C67G | 7.25e-05 ± 1.8e-05
176 | U46C G60C C61U | < 1e-05
